Assay results as given in article PMC9964254, “Caspase Inhibition Modulates Monocyte-Derived Macrophage Polarization in Damaged Tissues” (International Journal of Molecular Sciences, 2023).

Biological target: T1, p47^PHOX (83-390) (UniProt P14598 83-390)
T1 construct: p47^PHOX residues 83-390 (the first 82 amino acids deleted from the GST-p47^PHOX construct); Made from the GST-p47^PHOX construct (pGEX-6P-3); also called truncated p47^PHOX; p47^PHOX truncated at position 82; source: E. coli (BL21), purified with glutathione sepharose beads
T1 sequence (looked up): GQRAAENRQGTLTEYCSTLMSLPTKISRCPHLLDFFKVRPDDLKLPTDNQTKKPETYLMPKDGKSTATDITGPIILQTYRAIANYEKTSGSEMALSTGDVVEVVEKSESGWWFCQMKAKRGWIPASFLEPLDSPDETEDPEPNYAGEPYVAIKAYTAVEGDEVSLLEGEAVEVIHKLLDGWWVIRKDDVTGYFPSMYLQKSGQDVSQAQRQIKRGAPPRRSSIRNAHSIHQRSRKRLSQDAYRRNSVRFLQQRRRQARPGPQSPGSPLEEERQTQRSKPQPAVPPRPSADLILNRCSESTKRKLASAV
Test: pull-down; 214 nM p47^PHOX proteins with 286 nM GST or GST-p22^PHOX (132-195), 30 min at 4 °C in PBS pH 7.4, 0.1% Triton X-100; glutathione sepharose beads 1 h at 4 °C, eluted with 10 mM glutathione, immunoblot with anti-p47^PHOX
Conditions: both partners purified

B1: GST-p22^PHOX (132-195) (domain or fragment, UniProt P13498 132-195, looked up)
chain: TPIEPKPRERPQIGGTIKQPPSNPPPRPPAEARKKPSEEEAAVAAGGPPGGPQVNPIPVTDEVV
notes: p22^PHOX residues 132-195
binding result: binds
